From US20210163584A1 (Sanofi, published 2021)
Read-outs that look alike come from different tables or passages of the source.

Legend:
TGF-β1 [1] = biological target: T1, TGF-β1 (UniProt P01137 279-390); test: cell-based or functional assay
TGF-β1 [2] = biological target: T1, TGF-β1; test: cell-based or functional assay; remark: listed apart in the source
TGF-β1 [3] = biological target: T1, TGF-β1; test: cell-based or functional assay; remark: listed apart in the source
TGF-β1 [4] = biological target: T1, TGF-β1; test: SPR (Biacore); amine-coupled TGF-β1 on chip, antibody as analyte, kinetic fit
Text: Recombinant mAb1-D10 fusion variants of Example 7 were also quantitatively assessed for TGF-β1 binding using surface plasmon resonance (SPR) as detected by Biacore. Samples containing purified variants were passed over a sensor chip with amine-coupled TGF-β1 to determine the equilibrium constant, KD. A target immobilization level of less than 100 response units (RU) of TGF-β1 was chosen to minimize the potential for avidity effects arising from binding adjacent TGF-β1 molecules on the chip. The level of immobilization was determined by the change in response units after NHS/EDC activation of the chip surface, but before quenching with ethanolamine. The fusion variants, WT fusion variant F1, and mAb1 control were diluted to 30, 10, 3, 1 and 0.37 nM in HBS-EP buffer and passed over the TGF-β1 chip at 30 μL/min for 3 min, followed by 5 min dissociation in the same buffer. Between runs, the chip surface was regenerated to remove any bound antibody by passing two 30 sec injections of 40 mM HCl over the chip at a flow rate of 75 μL/min. […] Unexpectedly, the maximum signal (RU) elicited by the fusion variants decreased with increasing number of peptides, with variant F17 (D10-HC-D10/D10-LC, PAR=6) showing the lowest signal. […] A possible explanation of this decline may reflect electrostatic repulsion between the chip matrix (carboxymethyl dextran) and the negatively charged D10 peptides.

TGF-β1 [5] = biological target: T1, TGF-β1; test: cell-based or functional assay; remark: listed apart in the source

T1 sequence (P01137 279-390 limits assumed): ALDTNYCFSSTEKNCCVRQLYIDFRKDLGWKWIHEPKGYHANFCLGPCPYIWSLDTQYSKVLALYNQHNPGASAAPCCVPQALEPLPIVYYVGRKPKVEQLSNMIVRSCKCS

Binder	half-maximal inhibition of IL-11 release (EC50), A549 cells (TGF-β1 [1]) [nM]	IC50 (read off the curve); IL-11 release by A549 cells in response to TGF-β1 (TGF-β1 [2]) [nM]	IC50 (read off the curve); IL-11 release by A549 cells in response to TGF-β1 (TGF-β1 [3]) [nM]	Kd (TGF-β1 [4]) [nM]	koff (TGF-β1 [4]) [s⁻¹]	kon (TGF-β1 [4]) [M⁻¹ s⁻¹]	IC50 (read off the curve); IL-11 release by A549 cells in response to TGF-β1 (TGF-β1 [5]) [nM]
mAb1-D10 conjugate (PAR=9) (antibody, mouse IgG1, kappa, Ac-D10-C2-PEG12-C6-maleimide possibly on a light chain cysteine; Ac-D10-C2-PEG12-C6-maleimide on reduced hinge region cysteines; average 9 peptides per antibody (heavy and light chains together)) heavy: HVQLQQSGPELVRPGASVKLSCKASGYIFITYWMNWVKQRPGQGLEWIGQIFPASGSTNYNEMFEGKATLTVDTSSSTAYMQLSSLTSEDSAVYYCARGDGNYALDAMDYWGQGTSVTVSSAKTTPPSVYPLAPGSAAQTNSMVTLGCLVKGYFPEPVTVTWNSGSLSSGVHTFPAVLQSDLYTLSSSVTVPSSTWPSQTVTCNVAHPASSTKVDKKIVPRDCGCKPCICTVPEVSSVFIFPPKPKDVLTITLTPKVTCVVVDISKDDPEVQFSWFVDDVEVHTAQTKPREEQFNSTFRSVSELPIMHQDWLNGKEFKCRVNSAAFPAPIEKTISKTKGRPKAPQVYTIPPPKEQMAKDKVSLTCMITDFFPEDITVEWQWNGQPAENYKNTQPIMDTDGSYFVYSKLNVQKSNWEAGNTFTCSVLHEGLHNHHTEKSLSHSPGK light: NIVLTQSPASLAVSLGQRATISCRASESVDSYGNSFMHWYQQKSGQPPKLLIYLASNLESGVPARFSGSGSRTDFTLTIDPVEADDAATYYCQQNNEDPLTFGAGTKLELKRADAAPTVSIFPPSSEQLTSGGASVVCFLNNFYPKDINVKWKIDGSERQNGVLNSWTDQDSKDSTYSMSSTLTLTKDEYERHNSYTCEATHKTSTSPIVKSFNRNEC	~0.1	~0.04	–	–	–	–	–
mAb1 (mouse IgG1 anti-TGFβ monoclonal antibody, R&D Systems Clone #1D11) (antibody, Mouse IgG1, pan-specific anti-TGFβ; bought antibody used as control; also called unmodified mAb; mAb1 control) heavy: HVQLQQSGPELVRPGASVKLSCKASGYIFITYWMNWVKQRPGQGLEWIGQIFPASGSTNYNEMFEGKATLTVDTSSSTAYMQLSSLTSEDSAVYYCARGDGNYALDAMDYWGQGTSVTVSSAKTTPPSVYPLAPGSAAQTNSMVTLGCLVKGYFPEPVTVTWNSGSLSSGVHTFPAVLQSDLYTLSSSVTVPSSTWPSQTVTCNVAHPASSTKVDKKIVPRDCGCKPCICTVPEVSSVFIFPPKPKDVLTITLTPKVTCVVVDISKDDPEVQFSWFVDDVEVHTAQTKPREEQFNSTFRSVSELPIMHQDWLNGKEFKCRVNSAAFPAPIEKTISKTKGRPKAPQVYTIPPPKEQMAKDKVSLTCMITDFFPEDITVEWQWNGQPAENYKNTQPIMDTDGSYFVYSKLNVQKSNWEAGNTFTCSVLHEGLHNHHTEKSLSHSPGK light: NIVLTQSPASLAVSLGQRATISCRASESVDSYGNSFMHWYQQKSGQPPKLLIYLASNLESGVPARFSGSGSRTDFTLTIDPVEADDAATYYCQQNNEDPLTFGAGTKLELKRADAAPTVSIFPPSSEQLTSGGASVVCFLNNFYPKDINVKWKIDGSERQNGVLNSWTDQDSKDSTYSMSSTLTLTKDEYERHNSYTCEATHKTSTSPIVKSFNRNEC	~0.1	~0.2	~0.1	6	0.001	167000	~0.2
